Drawing on publication PMC11700639, this text covers FRET efficiency for one molecule.

The target in this assay is T1, MPZ-GFP (human), P25189.
T1 chain: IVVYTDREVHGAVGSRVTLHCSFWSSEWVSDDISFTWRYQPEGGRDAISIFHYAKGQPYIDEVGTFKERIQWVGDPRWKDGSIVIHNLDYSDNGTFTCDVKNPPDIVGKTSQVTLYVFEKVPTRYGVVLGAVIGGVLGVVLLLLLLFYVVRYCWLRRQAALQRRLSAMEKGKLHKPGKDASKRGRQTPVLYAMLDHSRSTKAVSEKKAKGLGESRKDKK
Kind of assay: FRET or BRET. The note with it: remark: other sources report otherwise.

B1: MPZ-mCherry, P25189 30-248 (natural protein)
chain: IVVYTDREVHGAVGSRVTLHCSFWSSEWVSDDISFTWRYQPEGGRDAISIFHYAKGQPYIDEVGTFKERIQWVGDPRWKDGSIVIHNLDYSDNGTFTCDVKNPPDIVGKTSQVTLYVFEKVPTRYGVVLGAVIGGVLGVVLLLLLLFYVVRYCWLRRQAALQRRLSAMEKGKLHKPGKDASKRGRQTPVLYAMLDHSRSTKAVSEKKAKGLGESRKDKK
B1 returned an FRET efficiency of 5.3%.
